Results reported in PMC11162321.

Columns and labels:
[1] = target: F-actin (rabbit skeletal muscle α-actin, filamentous) (rabbit (Oryctolagus cuniculus)) (UniProt P68135); assay: single-molecule TIRF microscopy
[2] = target: F-actin (rabbit skeletal muscle α-actin, filamentous) (rabbit (Oryctolagus cuniculus)) (UniProt P68135); assay: fluorescence polarisation
[3] = target: F-actin (rabbit skeletal muscle α-actin, filamentous) (rabbit (Oryctolagus cuniculus)) (UniProt P68135); assay: other fluorescence titration
[4] = target: F-actin (rabbit skeletal muscle α-actin, filamentous) (rabbit (Oryctolagus cuniculus)) (UniProt P68135); assay: cryo-EM structure

SipAC (SipA residues 425-685), unlabelled, sequence (P0CL52 425-685): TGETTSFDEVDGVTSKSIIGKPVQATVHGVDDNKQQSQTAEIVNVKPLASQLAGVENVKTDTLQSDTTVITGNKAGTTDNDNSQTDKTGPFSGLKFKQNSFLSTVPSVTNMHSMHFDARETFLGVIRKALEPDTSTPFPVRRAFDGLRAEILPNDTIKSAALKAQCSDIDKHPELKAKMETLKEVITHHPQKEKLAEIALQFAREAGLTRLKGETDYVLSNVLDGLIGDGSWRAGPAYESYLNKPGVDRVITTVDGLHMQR
Alexa-647-SipAC (SipA residues 425-685 labelled with Alexa Fluor 647 maleimide), sequence (P0CL52 425-685): as above
FM-SipAC (SipA residues 425-685 labelled with fluorescein maleimide), sequence (P0CL52 425-685): as above

Row | Substance | Kd [1] | koff [1] | Kd [2] | koff [2] | Kd [3] | stoichiometry N (SipAC per actin) [4]
1 | Alexa-647-SipAC (SipA residues 425-685 labelled with Alexa Fluor 647 maleimide) (from UniProt P0CL52 425-685) (domain or fragment) | 0.1 nM | 0.00038 s⁻¹ |  |  |  | 
2 | FM-SipAC (SipA residues 425-685 labelled with fluorescein maleimide) (from UniProt P0CL52 425-685) (domain or fragment) |  |  | 0.9 nM | 0.00304 s⁻¹ |  | 
3 | SipAC (SipA residues 425-685), unlabelled (from UniProt P0CL52 425-685) (domain or fragment) |  |  | 5 nM |  | 0.18 nM | 0.5
